The source of these data is patent US20210214454A1 (SYMPHOGEN A S, published 2021).

To fix the notation:
B1: antibody 16154 (antibody, human IgG1, kappa, L234A L235A, V domains shown)
VH: EVQLVESGGGLVQPGGSLRLSCAASGFTFTSYWMSWVRQAPGKGLEWVANIKQDGSEKYYVDSVKGRFTISRDNAKNSLYLQMNSLRAEDTAVYYCARGPVAGPYWYFDLWGRGTLVTVSS
VL: AIQMTQSPSSLSASVGDRVTITCRASQGIRNDLGWYQQKPGKAPKLLIYAASSLQSGVPSRFSGSGSGTDFTLTISSLQPEDFATYYCLQDYHYPLTFGGGTKVEIKR
notes: Fully human IgG1-LALA / kappa
B2: antibody 15833 (antibody, human IgG1, kappa, L234A L235A, V domains shown)
VH: QVQLVESGGGVVQPGRSLRLSCAASGFTFSNYAMHWVRQAPGKGLEWVALISFDGSYKYYADSVKGRFTISRDNSKNTLYLQMNSLRAEDTAVYYCVKDAGYSSSWFFDYWGQGTLVTVSS
VL: DIQMTQSPSSVSASVGDRVTITCRASQDISSWLAWYQQKPGKAPKLLIYAASSLQSGVPSRFSGSGSGTDFTLTISSLQPEDFGNYYCQQANSFPWTFGQGTKVEIKR
notes: Fully human IgG1-LALA / kappa
B3: antibody 17303 (antibody, human IgG1, kappa, L234A L235A, V domains shown)
VH: EVQLVESGGGLVQPGRSLRLSCAASGFTFDDHAMHWVRQAPGKGLEWVSGISWNSGSIGYAESVKGRFTISRDNAKNSLYLQMNSLRAEDTALYYCAKDRRGPFDYWGQGTLVTVSS
VL: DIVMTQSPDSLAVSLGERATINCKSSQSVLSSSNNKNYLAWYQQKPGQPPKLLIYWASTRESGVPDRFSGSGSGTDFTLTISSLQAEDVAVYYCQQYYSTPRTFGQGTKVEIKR
notes: Fully human IgG1-LALA / kappa
B4: antibody 15948 (antibody, human IgG1, kappa, L234A L235A, V domains shown)
VH: QVQLVESGGGVVQPGRSLRLSCAASGFTFSIYGMHWVRQAPGKGLEWVAVISYDGSNKYYADSVKGRFTISRDNSKNTLYLQMNSLRAEDTAVYYCAKDPDYYGSGSYYPDWGQGTLVTVSS
VL: DIQLTQSPSFLSASVGDRVTITCRASQGISSYLAWYQQKPGKAPKLLIYAASTLQSGVPSRFSGSGSGTEFTLTISSLQPEDFATYYCQQVKSYPLTFGGGTKVEIKR
notes: Fully human IgG1-LALA / kappa
B5: antibody 16040 (antibody, human IgG1, kappa, L234A L235A, V domains shown)
VH: QVQLVESGGGVVQPGRSLRLSCAASGFTFSIYGMHWVRQAPGKGLEWVAVISYDGSNKYYADSVKGRFTISRDNSKNTLYLQMNSLRAEDTAVYYCAAGNWFDPWGQGTLVTVSS
VL: B4 VL with V91L, K92N, S93R
notes: Fully human IgG1-LALA / kappa
B6: antibody 15888 (antibody, human IgG1, kappa, L234A L235A, V domains shown)
VH: QVQLQQSGPGLVKPSQTLSLTCAISGDSVSSNSATWNWIRQSPSRGLEWLGRTYYRSKWYNDYAVSVKSRITINPDTSKNQFSLQLNSVTPEDTAVYYCARGGHSIAVAGPFDYWGQGTLVTVSS
VL: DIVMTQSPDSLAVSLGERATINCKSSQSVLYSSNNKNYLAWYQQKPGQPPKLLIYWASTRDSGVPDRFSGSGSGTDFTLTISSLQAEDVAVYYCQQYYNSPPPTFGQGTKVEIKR
notes: Fully human IgG1-LALA / kappa

Substitutions are numbered along the chain they refer to.

T4 sequence (P25942 21-277 limits assumed): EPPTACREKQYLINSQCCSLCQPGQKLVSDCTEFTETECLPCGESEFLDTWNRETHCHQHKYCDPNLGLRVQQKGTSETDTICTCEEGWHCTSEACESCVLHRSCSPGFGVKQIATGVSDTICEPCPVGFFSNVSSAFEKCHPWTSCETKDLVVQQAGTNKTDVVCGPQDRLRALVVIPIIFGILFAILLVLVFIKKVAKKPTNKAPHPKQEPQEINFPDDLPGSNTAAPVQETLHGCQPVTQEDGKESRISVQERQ

In the first test the target is T1, His-tagged human CD40 extracellular domain (ECD) (human, UniProt P25942 21-193).
T1 construct: Bought from Sino Biological; also called human CD40 ECD; CD40-his ECD antigen; not shown: His tag
T1 sequence (P25942 21-193): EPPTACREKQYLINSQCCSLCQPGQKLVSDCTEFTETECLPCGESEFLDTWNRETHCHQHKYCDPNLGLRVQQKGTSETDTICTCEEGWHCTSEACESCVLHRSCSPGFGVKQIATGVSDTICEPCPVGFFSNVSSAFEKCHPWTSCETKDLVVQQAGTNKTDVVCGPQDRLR
The experiment in a line: SPR (IBIS MX96), antibody captured, monovalent CD40 ECD in solution.
As to B1, binding was characterised by a dissociation constant (Kd) of 5.7 nM; the koff (usually the rate constant with which the complex falls apart) was found to be 0.00031 s⁻¹; the on-rate (kon) – broadly, the second-order rate constant of association – amounted to 53000 M⁻¹ s⁻¹.
The corresponding values for B2 are 2.8 nM, 0.00012 s⁻¹ and 41000 M⁻¹ s⁻¹.
The like results for B3 were, in that order, 7.8 nM, 0.00038 s⁻¹ and 49000 M⁻¹ s⁻¹.
The like results for B4 were, in that order, 3.1 nM, 0.00031 s⁻¹ and 99000 M⁻¹ s⁻¹.
As to B5, the Kd (usually the constant that tells how readily two partners part at equilibrium) was 7 nM, the koff is 0.00036 s⁻¹ and the kon was 52000 M⁻¹ s⁻¹.
The like results for B6 were, in that order, 0.75 nM, 0.00014 s⁻¹ and 190000 M⁻¹ s⁻¹.

A further test concerns the target T2, cynomolgus CD40 extracellular domain (ECD) (cynomolgus).
T2 construct: extracellular domain; also called Cynomolgus CD40 ECD
The test is described as above.
B1 gave a Kd of 4.6 nM, a koff of 0.00051 s⁻¹ and a kon of 110000 M⁻¹ s⁻¹.
The like results for B2 were, in that order, 1.5 nM, 0.00012 s⁻¹ and 80000 M⁻¹ s⁻¹.
The like results for B3 were, in that order, 9.8 nM, 0.0014 s⁻¹ and 150000 M⁻¹ s⁻¹.
The like results for B4 were, in that order, 57 nM, 0.0021 s⁻¹ and 37000 M⁻¹ s⁻¹.
As to B5, the affinity, expressed as Kd, was 16 nM; the koff amounted to 0.0013 s⁻¹; the kon came out at 81000 M⁻¹ s⁻¹.
B6 displayed a Kd of 0.44 nM, a koff of 0.00014 s⁻¹ and an on-rate (kon) of 330000 M⁻¹ s⁻¹.

The next test concerns the target T3, cynomolgus CD40 protein expressed on CHO-S cells (cynomolgus, UniProt G7PG38 21-278).
T3 construct: whole, on cells
The experiment in a line: flow cytometry on CHO-S cells transiently expressing cynomolgus CD40; AF647 anti-human IgG (H+L) secondary; GeoMean RL1-H. How it is done:
(§1) The anti-CD40 antibodies were incubated with hamster CHO-S cells transiently expressing human or cynomolgus CD40 for 30 minutes at 4° C. The cells were washed twice and subsequently incubated for an additional 20 minutes with AF647-conjugated secondary anti-human IgG (H+L) antibody. After the washing step, antibody binding was detected using the high-throughput flow cytometer iQue Screener PLUS (Sartorius) measuring the GeoMean of AF647 signal in each well. Every concentration was assayed in triplicate and a 12-point titration curve was generated for each antibody.
(In general: A flow cytometer gives signals particle by particle.)
As to B1, the EC50 (read off the curve) – broadly, the midpoint of the concentration-response curve – was approximately 0.008 µg/mL.
The same measure, in the same setting: next, B2: approximately 0.2 µg/mL; B3: approximately 0.02 µg/mL.
Same read-out and setting: next, B4: approximately 0.4 µg/mL; B6: approximately 0.02 µg/mL.

Another test concerns the target T4, human CD40 protein expressed on cells (human, UniProt P25942 21-277).
T4 construct: also called human CD40 on CHO-S cells; CD40 of CD40-NFkB-luciferase reporter cells (Promega CD40 Bioassay kit)
The experiment in a line: flow cytometry on CHO-S cells transiently expressing human CD40; AF647 anti-human IgG (H+L) secondary; GeoMean RL1-H. The method, then:
as §1
In the case of B1, the “EC50 (read off the curve)” value is approximately 0.008 µg/mL.
On the same count and under the same terms, next, B2: approximately 0.1 µg/mL.
